From patent US20250313625A1 (ELPISCIENCE SUZHOU BIOPHARMA, published 2025)

Experiments:
[1] = target: T1, human LAG3 ECD recombinant protein (plate coated, tag not stated) (human, UniProt P18627 23-450); assay: competitive ELISA format I: His-FGL1 binding to coated LAG3 ECD
T1 construct: extracellular domain
T1 sequence (looked up): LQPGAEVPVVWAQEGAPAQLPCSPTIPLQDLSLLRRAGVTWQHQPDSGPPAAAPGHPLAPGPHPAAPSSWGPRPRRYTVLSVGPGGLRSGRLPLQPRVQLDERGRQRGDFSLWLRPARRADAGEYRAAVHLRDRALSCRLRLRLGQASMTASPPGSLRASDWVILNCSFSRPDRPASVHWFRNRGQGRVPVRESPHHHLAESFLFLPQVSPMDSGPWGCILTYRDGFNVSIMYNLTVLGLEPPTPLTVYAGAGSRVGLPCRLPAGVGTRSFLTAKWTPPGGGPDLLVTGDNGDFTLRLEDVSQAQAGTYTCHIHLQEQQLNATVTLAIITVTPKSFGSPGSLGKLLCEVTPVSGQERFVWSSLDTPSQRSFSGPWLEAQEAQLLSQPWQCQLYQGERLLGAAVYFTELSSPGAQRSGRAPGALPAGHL
Procedure: After washing, HRP labeled anti-His 2nd antibody (Sigma) was added and incubated at 37° C. for 1 hour. Then, 100 μl/well of TMB solution (Biotechnology) was added. After incubation for 15 minutes at room temperature, the reaction was stopped by the addition of 50 μl of 1N HCl. OD 450 nm was read. […] After washing, HRP labeled anti-SA 2nd antibody (Sigma) was added and incubated at 37° C. for 1 hour. Then, 100 μl/well of TMB solution (Biotechnology) was added. After incubation for 15 minutes at room temperature, the reaction was stopped by the addition of 50 μl of 1N HCl. OD 450 nm was read. […] The competition assay of format III is a competitive FACS assay. […] After washing, dye labeled anti-His 2nd antibody (Sigma) was added and incubated at 37° C. for 1 hour. Fluorescence intensity was detected.

[2] = target: T2, mFc tagged human LAG3 ECD recombinant protein (human, UniProt P18627 23-450); assay: competitive FACS: mFc-LAG3 ECD binding to Raji cells (MHC II)
T2 construct: extracellular domain; purchased from Biointron; not shown: mouse IgG Fc (mFc) tag
T2 sequence (looked up): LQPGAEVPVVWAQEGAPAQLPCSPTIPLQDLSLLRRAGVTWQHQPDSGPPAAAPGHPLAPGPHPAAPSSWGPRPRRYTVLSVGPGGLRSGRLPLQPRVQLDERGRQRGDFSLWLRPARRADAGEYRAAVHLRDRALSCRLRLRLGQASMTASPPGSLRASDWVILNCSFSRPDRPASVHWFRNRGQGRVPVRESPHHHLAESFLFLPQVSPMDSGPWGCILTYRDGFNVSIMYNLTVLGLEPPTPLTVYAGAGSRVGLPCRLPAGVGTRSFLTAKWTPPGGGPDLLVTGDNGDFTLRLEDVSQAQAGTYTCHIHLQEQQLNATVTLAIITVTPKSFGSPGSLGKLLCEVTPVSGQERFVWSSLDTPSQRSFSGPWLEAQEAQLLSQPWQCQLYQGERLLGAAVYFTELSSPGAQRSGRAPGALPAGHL
Procedure: Activity of the purified chimeric antibodies to block LAG3 and MHC II interaction was determined by competitive FACS assay. […] After washing, dye labeled anti-mouse Fc 2nd antibody (Sigma) was added and incubated at 37° C. for 1 hour. Fluorescence intensity was detected.

[3] = target: T3, human LAG3, full length, stably expressed on cells (human, UniProt P18627 23-525); assay: FACS on 293F cells stably expressing human LAG3
T3 construct: whole, on cells; also called CHOK1-human LAG3
T3 sequence (looked up): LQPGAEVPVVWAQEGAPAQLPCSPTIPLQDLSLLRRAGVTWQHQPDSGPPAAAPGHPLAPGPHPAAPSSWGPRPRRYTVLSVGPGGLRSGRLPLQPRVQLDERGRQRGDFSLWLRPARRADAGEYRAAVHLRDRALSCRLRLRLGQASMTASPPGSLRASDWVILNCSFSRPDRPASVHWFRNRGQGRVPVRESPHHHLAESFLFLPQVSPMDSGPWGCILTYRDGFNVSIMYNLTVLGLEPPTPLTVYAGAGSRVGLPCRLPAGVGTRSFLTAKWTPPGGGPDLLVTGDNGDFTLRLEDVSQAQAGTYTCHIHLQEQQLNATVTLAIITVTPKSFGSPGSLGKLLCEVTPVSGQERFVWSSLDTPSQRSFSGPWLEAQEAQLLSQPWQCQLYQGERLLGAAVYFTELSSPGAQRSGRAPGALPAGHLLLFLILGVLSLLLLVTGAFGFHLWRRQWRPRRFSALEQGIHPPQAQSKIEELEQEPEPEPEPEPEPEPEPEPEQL
Procedure: (§1) Briefly the antibodies were incubated with 2×10⁵ target cells at 4° C. for 1 hour. After washing, fluorescence labeled anti-mouse IgG 2nd antibody (Life Technologies) was added and incubated at 4° C. for 1 hour. Geometric median fluorescence intensity (MFI) was detected and EC₅₀ was calculated using GraphPad Prism9.0.
MFI was detected and EC₅₀ was calculated using GraphPad Prism9.0.

[4] = target: T4, mouse LAG3, full length, stably expressed on CHOK1 cells (mouse, UniProt Q61790 24-521); assay: FACS on CHOK1 cells expressing mouse LAG3
T4 construct: whole, on cells
T4 sequence (looked up): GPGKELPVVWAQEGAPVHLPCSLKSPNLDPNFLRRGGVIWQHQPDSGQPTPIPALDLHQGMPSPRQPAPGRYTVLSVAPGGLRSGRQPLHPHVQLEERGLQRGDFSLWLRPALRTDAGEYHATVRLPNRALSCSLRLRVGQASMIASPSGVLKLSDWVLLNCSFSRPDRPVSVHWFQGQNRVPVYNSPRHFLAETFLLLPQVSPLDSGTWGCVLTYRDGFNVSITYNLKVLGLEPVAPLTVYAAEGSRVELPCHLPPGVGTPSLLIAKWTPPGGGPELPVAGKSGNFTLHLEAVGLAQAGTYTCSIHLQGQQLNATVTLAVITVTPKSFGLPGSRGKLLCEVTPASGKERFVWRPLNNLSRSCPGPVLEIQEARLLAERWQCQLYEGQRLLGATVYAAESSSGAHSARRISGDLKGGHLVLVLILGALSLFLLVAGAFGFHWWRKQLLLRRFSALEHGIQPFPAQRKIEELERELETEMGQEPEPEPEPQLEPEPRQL
Procedure: as §1

[5] = target: T5, hFc tagged human LAG3 ECD recombinant protein (human, UniProt P18627 23-450); assay: competitive FACS: hFc-LAG3 ECD binding to Raji cells (MHC II)
T5 construct: range 23-450; also called biotin labelled hFc tagged human LAG3 ECD; not shown: human IgG Fc tag
T5 sequence (looked up): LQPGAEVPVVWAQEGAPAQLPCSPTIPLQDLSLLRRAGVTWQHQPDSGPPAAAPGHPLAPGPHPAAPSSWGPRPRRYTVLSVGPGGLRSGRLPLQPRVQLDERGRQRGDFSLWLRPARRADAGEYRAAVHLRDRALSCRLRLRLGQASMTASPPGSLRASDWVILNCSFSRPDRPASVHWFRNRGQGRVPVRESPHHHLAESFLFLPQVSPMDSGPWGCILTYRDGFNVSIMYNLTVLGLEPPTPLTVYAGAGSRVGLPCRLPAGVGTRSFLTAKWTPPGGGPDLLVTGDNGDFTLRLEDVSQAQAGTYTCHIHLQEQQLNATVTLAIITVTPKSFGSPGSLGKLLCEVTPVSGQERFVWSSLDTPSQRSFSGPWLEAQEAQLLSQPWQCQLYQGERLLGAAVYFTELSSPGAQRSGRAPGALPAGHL
Procedure: Competitive FACS assay was used to determine whether the purified hybridoma antibodies can block LAG3 and MHC II interaction. […] After washing, dye labeled anti-human Fc 2nd antibody (Sigma) was added and incubated at 37° C. for 1 hour. Fluorescence intensity was detected.

[6] = target: T5, hFc tagged human LAG3 ECD recombinant …; assay: competitive ELISA: excess competitor, biotin hFc-LAG3 ECD, coated BMS-986016
Procedure: (§2) Competitive ELISA assay was used for epitope binning of the purified hybridoma antibodies. […] After washing, HRP labeled anti-streptavidin (SA) 2nd antibody (Sigma) was added and incubated at 37° C. for 1 hour. Then, 100 μl/well of TMB solution (Biotechnology) was added. After incubation for 15 minutes at room temperature, the reaction was stopped by the addition of 50 μl of 1N HCl. OD 450 nm was read. Competition ratio was calculated.

[7] = target: T3, human LAG3, full length, stably …; assay: FACS on 293F-human LAG3 cells
Procedure: as §1

[8] = target: T5, hFc tagged human LAG3 ECD recombinant …; assay: competitive ELISA: excess competitor, biotin hFc-LAG3 ECD, coated BAP-050
Procedure: as §2

[9] = target: T6, hFc tagged human LAG3 D1-D2 recombinant protein (human, UniProt P18627 23-261); assay: ELISA, coated hFc-hLAG3 D1-D2
T6 construct: range 23-261; generated by Chempartner; also called hLAG3 D1-D2; not shown: human IgG Fc tag
T6 sequence (looked up): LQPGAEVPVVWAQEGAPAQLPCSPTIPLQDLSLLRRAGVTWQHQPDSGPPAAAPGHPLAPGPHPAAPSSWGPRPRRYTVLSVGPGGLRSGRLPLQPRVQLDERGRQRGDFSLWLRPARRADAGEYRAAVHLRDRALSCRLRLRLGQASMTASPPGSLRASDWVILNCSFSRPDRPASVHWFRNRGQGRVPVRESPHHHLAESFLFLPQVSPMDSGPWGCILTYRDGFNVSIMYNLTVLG
Procedure: Binding activity of the purified hybridoma antibodies against human LAG3 was detected by ELISA assay using hFc tagged human LAG3 D1-D2 recombinant protein. Briefly the antibodies were incubated with ELISA microplate coated antigens at 37° C. for 1 hour. After washing, horseradish peroxidase (HRP) labeled anti-human IgG 2nd Ab (Sigma) was added and incubated at 37° C. for 1 hour. Then, 100 μl/well of TMB solution (Biotechnology) was added. After incubation for 15 minutes at room temperature, the reaction was stopped by the addition of 50 μl of 1N HCl. OD 450 nm was read and EC₅₀ was calculated using GraphPad Prism9.0.

Binder	Blocking ratio at 66.7 nM (%) [1] [%]	IC50 [2] [nM]	TOP blocking (%) [2] [%]	EC50 [3] [nM]	TOP MFI [3]	binding result [4]	IC50 [5] [nM]	TOP blocking (%) [5] [%]	% competition [6] [%]	EC50 [7] [nM]	% competition [8] [%]	EC50 [9] [nM]
015c (antibody, human IgG4, V domains shown, human IgG4 S228P / kappa chimeric antibody; also called chimeric antibody 015; not shown: human kappa light chain constant region (pcDNA3.4-hIgGk vector)) VH: EVQLQQSGPVLVKPGASVKLSCKASGFTFTDYYMNWVKLSHGKSLEWIGVINPFNGDTAYKQKFKGKATLTVDKSSSTAYMELNSLTSEDSAVYYCARDDGYYLYYFDSWGQGTTLTVSS VL: DIQMTQSPSSLSASLGERVSLTCRASQDIGSRLNWLQQEPDGTIKRLIYATSSLDSGVPKRFSGSRSGSDYSLTISSLDSEDFVVYYCLQYASSPPTFGAGTKLELK	43.6	5.4	77.1	1.9	296	–	–	–	–	–	–	–
024c (antibody, human IgG4, V domains shown, human IgG4 S228P / kappa chimeric antibody; also called chimeric antibody 024; not shown: human kappa light chain constant region (pcDNA3.4-hIgGk vector)) VH: EVQLQQSGPELVKPGASVKISCKASGYTFTDYYMNWVKQSHGKRLEWIGDIDPNNGGTSYNQKFKGKATLTVDKSSSSAYMDLRSLTSEDSAVYYCARAGSYYYGSSYVEYFDVWGTGTTVTVSS VL: DIQMTQSPASLSASVGETVTITCRASGNIHNYLAWYQQKQGASPQLLVYNAKTLADGVPSRFSGSGSGTEFSLKINSLQPEDFGNYYCQHFWNTPYTFGGGTKLEIK	39.4	3.7	96.9	1.1	346	–	–	–	–	–	–	–
Antibody 039 (antibody, V domains shown, mouse hybridoma antibody) VH: EFQLQQSGPELVKPGASVKISCKASGYSFTDYNLNWVRQSNGKSLEWIGLVDPIYGTIRYNQNFKDKATLTVDQSSSTAYMQLNSLTSEDSAVYYCASIMTAVRYFDHWGQGTTLTVSS VL: DVLMTQTPLFLPVSLGDQASISCRSSLNIVHSDGNTYLEWYLQKPGQSPKLLIYKVSNRFSGVPDRFSGSGSGTDFTLKISGVEAEDLGVYYCFQGSHVPPTFGGGTKLEIK	–	–	–	–	–	no binding	5.2	94.9	19.3	1.38	2.6	0.04
Antibody 048 (antibody, V domains shown, mouse hybridoma antibody) VH: EFQVQQSGPELVKPGASVKISCKASGYSFSDYNMNWLKQSTGKSLEWIGLVDPIYGTIRYNQKFKGKATLTVDQSSSTAYMQLNSLTSEDSAVYYCALITTSVRYFDYWGQGTTLTVSS VL: DVLMTQTPLSLPVSLGDQASISCRSSQNIVHTDGNTYLEWYLQKPGQSPKLLIYKVSNRFSGVPDRFSGSGSGTDFTLKISRVEAEDLGVYYCFQGSHVPPTFGGGTKLEIK	–	–	–	–	–	no binding	7.6	92.9	41.7	1.19	10	0.05
035c (antibody, human IgG4, V domains shown, human IgG4 S228P / kappa chimeric antibody; also called chimeric antibody 035; not shown: human kappa light chain constant region (pcDNA3.4-hIgGk vector)) VH: QVQLQQSGAELARPGASVKLSCKASGYSFTSYGINWVKQRTGQGLEWIGEIYPRSGNTYYNEKFKDKATLTADKSSSTAYMELRSLTSEDSAVYFCARGGTYDGYYYAMDFWGQGTSVTVSS VL: DIVLTQSPASLAVSLGQRATISCRASESVDNFGSSFLHWYQQKPGQAPKLLIYRASNLESGIPARFSGSGSRTDFTLTINPVETDDVATYYCQQVNKDPRTFGGGTKLEIK	24.3	4.3	95.9	1.3	333	–	–	–	–	–	–	–
057c (antibody, human IgG4, V domains shown, human IgG4 S228P / kappa chimeric antibody; also called chimeric antibody 057; not shown: human kappa light chain constant region (pcDNA3.4-hIgGk vector)) VH: QVQLQQSGAELARPGASVKLSCKASGFSFTSYGINWVKQRTGQGLEWIGEIYPRSGNTYYNEKLKGEATLTADRSSSTAYMELRSLTSEDSAVYFCARGGTYDGYYYAMDYWGQGTSVTVSS VL: NIVLTQSPASLAVSLGQRATISCRASESVDNFGSSFMHWYQQKPGQAPKLLIYRASNLESGIPARFGGSGSGTDFTLTIDPVETDDVATYYCQQVNKDPRTFGGGTKLEIK	33.3	2.5	95.1	1.4	337	–	–	–	–	–	–	–
